Test results reported in doi:10.1101/2024.12.01.626218.

Molecular target: TTF2 1-100 (UniProt Q5NC05)
Experiment: isothermal titration calorimetry
Settings: reference: unphosphorylated TRAIP 313-329 peptide; sites T325

TRAIP 313-329 (from UniProt Q8VIG6) pT325 TRAIP 313-329 peptide
binding against the reference: gained
